The text below walks through data of publication PMC8599806.

For the experiment, the target named is RECQL (UniProt P46063). In words: ID3 co-IP, Western blot. Particulars: reference: wild type ID3; sites S65. (In general: Immunoblotting shows a protein as a band on a membrane.)

As to ID3 (from UniProt Q02535) S65A, the “binding against the reference” value was “lost”.
